Assay results taken from patent US20250026827A1 (Alector, published 2025).
Residue numbers refer to the chain shown, from its start. Blank lines part the entries; values can stand above or below the binder they belong to.

Columns and labels:
[1] = target: T1, mouse SIRPα D1-Fc (mouse, UniProt P97797 32-150, limits assumed); assay: Octet
T1 construct: domain: D1
T1 sequence (looked up): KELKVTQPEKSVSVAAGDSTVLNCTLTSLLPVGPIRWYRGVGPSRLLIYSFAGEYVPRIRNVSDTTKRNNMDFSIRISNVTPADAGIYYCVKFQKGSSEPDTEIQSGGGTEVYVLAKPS

[2] = target: T2, mouse SIRPβ1 on CHO cells (mouse); assay: flow cytometry;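 on FOB: antibodies tested at 1 µg/ml for 30 min on ice against receptor-expressing cells, detected with a PE-labelled secondary antibody, read as mean fluorescence intensity relative to background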
T2 construct: Whole entry
T2 chain: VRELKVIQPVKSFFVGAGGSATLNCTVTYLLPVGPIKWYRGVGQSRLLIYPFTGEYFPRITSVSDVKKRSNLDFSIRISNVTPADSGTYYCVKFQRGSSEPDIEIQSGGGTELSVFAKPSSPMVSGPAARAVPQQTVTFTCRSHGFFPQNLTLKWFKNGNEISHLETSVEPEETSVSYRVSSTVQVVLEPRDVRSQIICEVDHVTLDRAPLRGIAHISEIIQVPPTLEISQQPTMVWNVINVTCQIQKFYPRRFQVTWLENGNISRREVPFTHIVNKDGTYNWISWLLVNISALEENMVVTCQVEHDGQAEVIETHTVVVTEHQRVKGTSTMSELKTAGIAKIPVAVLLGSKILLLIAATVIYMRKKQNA

[3] = target: T3, mouse SIRPα on cells (mouse, UniProt P97797 32-513); assay: flow cytometry;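 on FOB: antibodies tested at 1 µg/ml for 30 min on ice against receptor-expressing cells, detected with a PE-labelled secondary antibody, read as mean fluorescence intensity relative to background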
T3 construct: whole, on cells
T3 sequence (looked up): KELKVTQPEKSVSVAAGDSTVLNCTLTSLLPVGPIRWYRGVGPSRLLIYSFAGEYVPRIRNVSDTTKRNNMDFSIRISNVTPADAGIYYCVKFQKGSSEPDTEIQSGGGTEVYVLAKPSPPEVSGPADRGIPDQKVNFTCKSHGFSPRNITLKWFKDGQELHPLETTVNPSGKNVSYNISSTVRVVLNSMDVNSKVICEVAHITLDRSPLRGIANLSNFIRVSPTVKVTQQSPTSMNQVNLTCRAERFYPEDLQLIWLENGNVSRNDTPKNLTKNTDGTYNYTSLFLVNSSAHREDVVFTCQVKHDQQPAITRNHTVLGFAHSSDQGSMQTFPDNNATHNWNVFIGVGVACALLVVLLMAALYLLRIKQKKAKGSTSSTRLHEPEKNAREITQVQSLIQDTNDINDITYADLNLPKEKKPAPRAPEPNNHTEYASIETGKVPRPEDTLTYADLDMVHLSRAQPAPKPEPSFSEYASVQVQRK

[4] = target: T4, human SIRPβ1 isoform 1 on cells (human, UniProt O00241 30-398); assay: flow cytometry;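 further: antibodies tested at 1 µg/ml for 30 min on ice against receptor-expressing cells, detected with a PE-labelled secondary antibody, read as mean fluorescence intensity relative to background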
T4 construct: On CHO cells (low level), on BWZ/BW5147.G.1.4 cells (reporter cells co-express human DAP12) or on primary human myeloid cells; also called huSIRPβ1; BWZ-huSIRPβ1
T4 sequence (O00241 30-398): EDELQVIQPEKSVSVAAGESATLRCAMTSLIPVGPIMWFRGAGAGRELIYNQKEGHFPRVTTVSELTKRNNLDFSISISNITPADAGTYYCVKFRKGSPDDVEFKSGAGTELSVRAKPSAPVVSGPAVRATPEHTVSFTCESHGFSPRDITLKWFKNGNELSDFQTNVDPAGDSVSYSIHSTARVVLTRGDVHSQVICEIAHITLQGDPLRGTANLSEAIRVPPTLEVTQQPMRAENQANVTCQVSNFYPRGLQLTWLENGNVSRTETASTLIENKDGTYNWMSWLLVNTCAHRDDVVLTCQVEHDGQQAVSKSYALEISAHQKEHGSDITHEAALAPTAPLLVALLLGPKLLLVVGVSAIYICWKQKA

[5] = target: T5, human SIRPα on cells (human, UniProt P78324 31-504); assay: flow cytometry;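 on FOB: antibodies tested at 1 µg/ml for 30 min on ice against receptor-expressing cells, detected with a PE-labelled secondary antibody, read as mean fluorescence intensity relative to background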
T5 construct: Whole entry

[6] = target: T2, mouse SIRPβ1 on CHO cells; assay: flow cytometry
[7] = target: T3, mouse SIRPα on cells; assay: flow cytometry; remark: listed apart in the source
[8] = target: T6, human SIRPβ1 domain 1 (D1) Fc fusion (human, UniProt O00241 30-148); assay: Octet, IgG avid
T6 construct: Made in HEK293/T cells with a heterologous signal peptide; also called Human SIRPβ1 D1-Fc; Human SIRPβ1-Fc; not shown: C-terminal human IgG1 Fc
T6 sequence (O00241 30-148 limits assumed): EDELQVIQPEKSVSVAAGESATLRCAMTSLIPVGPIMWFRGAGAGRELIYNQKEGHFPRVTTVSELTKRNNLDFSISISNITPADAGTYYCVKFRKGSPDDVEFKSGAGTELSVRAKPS

[9] = target: T7, human SIRPα domain 1 (D1) Fc fusion (human, UniProt P78324 32-149); assay: Octet
T7 construct: also called human SIRPα D1-Fc; Human SIRPα Fc; not shown: C-terminal human IgG1 Fc

[10] = target: T5, human SIRPα on cells; assay: flow cytometry; remark: listed apart in the source

B1: SB-30 (antibody, V domains shown)
VH: QVQLQESGPGLVKPSQTLSLTCTVSGGSISSGGYYWSWIRQHPGKGLEWIGYIYYSGSTVYNPSLKSRVTISVDTSKNQFSLKLSSVTAADTAVYYCAREGPGYPSYFDPWGQGTLVTVSS
VL: EIVLTQSPGTLSLSPGERATLSCRASQSVSSSFLAWYQQKPGQAPRLLIYGASSRATGIPDRFSGSGSGTDFTLTISRLEPEDFAVYYCQQFLSSPWTFGGGTKVENQ
notes: IgG
binding result [1]: no binding (tested: 100 nM)
binding result [2]: no binding (tested: 1 ug/ml)
binding result [3]: no binding (tested: 1 ug/ml)
FOB [4]: 1.7 fold over background
FOB [5]: 2.1 fold over background
FOB [6]: 1.4 fold over background
FOB [7]: 1.5 fold over background
Kd [8]: 7.87 nM

B2: SB-23 (antibody, V domains shown)
VH: QVQLVQSGAEVKKPGSSVKVSCKASGGTFSSYAISWVRQAPGQGLEWMGGIAPIFGTANYAQKFQGRVTITADESTSTAYMELSSLRSEDTAVYYCARTTYRDYYMDVWGKGTTVTVSS
VL: DIQMTQSPSSLSASVGDRVTITCRASQSISSYLNWYQQKPGKAPKLLIYAASSLQSGVPSRFSGSGSGTDFTLTISSLQPEDFATYYCQQAYPYPLTFGGGTKVEIK
notes: IgG
binding result [9]: no binding (tested: 100 nM)
binding result [1]: no binding (tested: 100 nM)
binding result [10]: no binding (tested: 1 ug/ml)
binding result [2]: no binding (tested: 1 ug/ml)
binding result [3]: no binding (tested: 1 ug/ml)
FOB [4]: 2.4 fold over background
FOB [5]: 1.9 fold over background
FOB [6]: 1.5 fold over background
FOB [7]: 1.4 fold over background

B3: SB-25 (antibody, V domains shown)
VH: QVQLVQSGAEVKKPGSSVKVSCKASGGTFSSLAISWVRQAPGQGLEWMGGIIPIFGTANYAQKFQGRVTITADESTSTAYMELSSLRSEDTAVYYCARSGGDYSGYDYASGMDVWGQGTTVTVSS
VL: B2 VL with L11V, S28G, Y32W, N34A, A91V, Y92N, P93S, Y94F, L96W
notes: IgG
binding result [9]: no binding (tested: 100 nM)
binding result [1]: no binding (tested: 100 nM)
binding result [10]: no binding (tested: 1 ug/ml)
binding result [2]: no binding (tested: 1 ug/ml)
binding result [3]: no binding (tested: 1 ug/ml)
FOB [4]: 2.1 fold over background
FOB [5]: 2.5 fold over background
FOB [6]: 1.2 fold over background
FOB [7]: 1.3 fold over background

B4: SB-10 (antibody, V domains shown)
VH: QVQLVQSGAEVKKPGSSVKVSCKASGGTFSSYAISWVRQAPGQGLEWMGGIIPIFGTANYAQKFQGRVTITADESTSTAYMELSSLRSEDTAVYYCARGVPRGDLGMDVWGQGTTVTVSS
VL: not shown
notes: IgG
binding result [9]: no binding (tested: 100 nM)
binding result [1]: no binding (tested: 100 nM)
binding result [10]: no binding (tested: 1 ug/ml)
binding result [2]: no binding (tested: 1 ug/ml)
binding result [3]: no binding (tested: 1 ug/ml)
FOB [4]: 3.8 fold over background
FOB [5]: 2.4 fold over background
FOB [6]: 1.4 fold over background
FOB [7]: 1 fold over background

B5: SB-5 (antibody, V domains shown)
VH: not shown
VL: EIVLTQSPATLSLSPGERATITCRASQSVSSYLAWYQQKPGQAPRLLIYDASNRATGIPARFSGSGSGTDFTLTISSLEPEDFAVYYCQQRLFHPPTFGGGTKVEIK
notes: IgG
binding result [9]: no binding (tested: 100 nM)
binding result [1]: no binding (tested: 100 nM)
binding result [10]: no binding (tested: 1 ug/ml)
binding result [2]: no binding (tested: 1 ug/ml)
binding result [3]: no binding (tested: 1 ug/ml)
FOB [4]: 1.6 fold over background
FOB [5]: 2 fold over background
FOB [6]: 1.3 fold over background
FOB [7]: 1.5 fold over background

B6: SB-14 (antibody, V domains shown)
VH: QVQLVQSGAEVKKPGSSVKVSCKASGGTFSSYAISWVRQAPGQGLEWMGGIIPIFGTASYAQKFQGRVTITADESTSTAYMELSSLRSEDTAVYYCARDRGGVGFDYWGQGTLVTVSS
VL: B5 VL with L4M, I21L, T22S, A51S, R91F, L92S, F93Y, H94Y, P96I
notes: IgG
binding result [9]: no binding (tested: 100 nM)
binding result [1]: no binding (tested: 100 nM)
binding result [10]: no binding (tested: 1 ug/ml)
binding result [2]: no binding (tested: 1 ug/ml)
binding result [3]: no binding (tested: 1 ug/ml)
FOB [4]: 4.5 fold over background
FOB [5]: 2.5 fold over background
FOB [6]: 1.3 fold over background
FOB [7]: 1.2 fold over background

Now from value to binder:

binding result [9]: no binding (tested: 100 nM)
binding result [1]: no binding (tested: 100 nM)
binding result [10]: no binding (tested: 1 ug/ml)
binding result [2]: no binding (tested: 1 ug/ml)
binding result [3]: no binding (tested: 1 ug/ml)
FOB [4]: 3.9 fold over background
FOB [5]: 2.4 fold over background
FOB [6]: 1.3 fold over background
FOB [7]: 1.1 fold over background
B7: SB-27 (antibody, V domains shown)
VH: QVQLVQSGAEVKKPGSSVKVSCKASGGTFSSYAISWVRQAPGQGLEWMGGIIPIFGTANYAQKFQGRVTITADESTSTAYMELSSLRSEDTAVYYCARQDLGSSHWHFDLWGRGTLVTVSS
VL: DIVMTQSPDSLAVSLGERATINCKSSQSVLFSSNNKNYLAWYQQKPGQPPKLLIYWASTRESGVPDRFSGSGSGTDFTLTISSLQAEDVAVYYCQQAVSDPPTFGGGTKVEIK
notes: IgG

binding result [9]: no binding (tested: 100 nM)
binding result [1]: no binding (tested: 100 nM)
binding result [10]: no binding (tested: 1 ug/ml)
binding result [2]: no binding (tested: 1 ug/ml)
binding result [3]: no binding (tested: 1 ug/ml)
FOB [4]: 2.8 fold over background
FOB [5]: 2.5 fold over background
FOB [6]: 1.2 fold over background
FOB [7]: 1.7 fold over background
B8: SB-50 (antibody, V domains shown)
VH: QVQLVQSGAEVKKPGSSVKVSCKASGGTFSSYAISWVRQAPGQGLEWMGGIIPIFGTANYAQKFQGRVTITADESTSTAYMELSSLRSEDTAVYYCAREGGGHASYHYYGMDVWGQGTTVTVSS
VL: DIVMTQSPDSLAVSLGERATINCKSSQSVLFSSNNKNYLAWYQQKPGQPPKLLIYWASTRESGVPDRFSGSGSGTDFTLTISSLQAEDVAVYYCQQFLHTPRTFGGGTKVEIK
notes: IgG

binding result [9]: no binding (tested: 100 nM)
binding result [1]: no binding (tested: 100 nM)
binding result [10]: no binding (tested: 1 ug/ml)
binding result [2]: no binding (tested: 1 ug/ml)
binding result [3]: no binding (tested: 1 ug/ml)
FOB [4]: 3.7 fold over background
FOB [5]: 2.5 fold over background
FOB [6]: 1.3 fold over background
FOB [7]: 1.1 fold over background
B9: SB-24 (antibody, V domains shown)
VH: QVQLQESGPGLVKPSETLSLTCAVSGYSISSGYYWAWIRQPPGKGLEWIGSIYHSGSTYYNPSLKSRVTISVDTSKNQFSLKLSSVTAADTAVYYCARDRSRGYPVYGMDVWGQGTTVTVSS
VL: EIVMTQSPATLSVSPGERATLSCRASQSVSSNLAWYQQKPGQAPRLLIYGASTRATGIPARFSGSGSGTEFTLTISSLQSEDFAVYYCQQLNIHPWTFGGGTKVEIK
notes: IgG

binding result [9]: no binding (tested: 100 nM)
binding result [1]: no binding (tested: 100 nM)
binding result [10]: no binding (tested: 1 ug/ml)
binding result [2]: no binding (tested: 1 ug/ml)
binding result [3]: no binding (tested: 1 ug/ml)
FOB [4]: 1.8 fold over background
FOB [5]: 2 fold over background
FOB [6]: 1.2 fold over background
FOB [7]: 1.3 fold over background
B10: SB-34 (antibody, V domains shown)
VH: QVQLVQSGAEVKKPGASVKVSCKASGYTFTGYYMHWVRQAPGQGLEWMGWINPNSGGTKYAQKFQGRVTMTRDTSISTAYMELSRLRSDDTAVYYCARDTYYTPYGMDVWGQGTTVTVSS
VL: B9 VL with L91D, I93T, H94F, W96Y
notes: IgG

binding result [9]: no binding (tested: 100 nM)
binding result [1]: no binding (tested: 100 nM)
binding result [10]: no binding (tested: 1 ug/ml)
binding result [2]: no binding (tested: 1 ug/ml)
binding result [3]: no binding (tested: 1 ug/ml)
FOB [4]: 1.9 fold over background
FOB [5]: 1.9 fold over background
FOB [6]: 1.2 fold over background
FOB [7]: 0.9 fold over background
B11: SB-13 (antibody, V domains shown)
VH: QVQLQESGPGLVKPSETLSLTCTVSGGSISSYYWSWIRQPPGKGLEWIGSIYYSGSTNYNPSLKSRVTISVDTSKNQFSLKLSSVTAADTAVYYCARGDTSGGAYFDLWGRGTLVTVSS
VL: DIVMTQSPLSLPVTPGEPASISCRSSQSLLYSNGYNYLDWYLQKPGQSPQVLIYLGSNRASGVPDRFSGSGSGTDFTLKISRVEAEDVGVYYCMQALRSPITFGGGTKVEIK
notes: IgG
